Test results published in US20230135471A1, “UBIQUITIN VARIANTS WITH IMPROVED AFFINITY FOR 53BP1” (Integrated DNA Technologies, Inc., priority 2021, published 2023).

biological target: 53BP1 fragment (a.a. 1221-1718) fused to an adenylate cyclase fragment (two-hybrid) (UniProt Q12888); test: cell-based or functional assay

Row | Substance | Experiment 1 Average Enrichment | Experiment 1 Rep 1 Enrichment | Experiment 1 Rep 2 Enrichment | Experiment 2 Average Enrichment | Experiment 2 Rep 1 Enrichment | Experiment 2 Rep 2 Enrichment | Percent GFP Positive Rep 1 | Percent GFP Positive Rep 2 | Percent GFP Positive Rep 3
1 | i53 + L67S two-hybrid fusion (designed binder) | 1.18 log2 | 1.15 log2 | 1.2 log2 | 0.94 log2 | 1.24 log2 | 0.63 log2 | – | – | –
2 | i53 + L67T two-hybrid fusion (designed binder) | 0.09 log2 | 0.69 log2 | -0.52 log2 | 0.11 log2 | -0.3 log2 | 0.52 log2 | – | – | –
3 | i53 + L67Y two-hybrid fusion (designed binder) | 0.14 log2 | -0.58 log2 | 0.86 log2 | 0.58 log2 | 0.5 log2 | 0.65 log2 | – | – | –
4 | i53 + L73M two-hybrid fusion (designed binder) | 2.61 log2 | 2.69 log2 | 2.52 log2 | 1.43 log2 | 1.58 log2 | 1.28 log2 | 36.2% | 29.2% | 39.5%
5 | i53 + M1F two-hybrid fusion (designed binder) | 0.8 log2 | 0.71 log2 | 0.9 log2 | 0.36 log2 | 0.39 log2 | 0.33 log2 | – | – | –
6 | i53 + M1I two-hybrid fusion (designed binder) | 0.06 log2 | 0.11 log2 | 0.01 log2 | 0 log2 | -0.18 log2 | 0.19 log2 | – | – | –
7 | i53 + M1N two-hybrid fusion (designed binder) | -0.25 log2 | -0.37 log2 | -0.13 log2 | 0.02 log2 | -0.04 log2 | 0.08 log2 | – | – | –
8 | i53 + M1Q two-hybrid fusion (designed binder) | 1.31 log2 | 1.23 log2 | 1.38 log2 | 0.68 log2 | 0.58 log2 | 0.79 log2 | – | – | –
9 | i53 + M1R two-hybrid fusion (designed binder) | 0.1 log2 | -0.01 log2 | 0.22 log2 | 0.21 log2 | 0.11 log2 | 0.3 log2 | – | – | –
10 | i53 + M1S two-hybrid fusion (designed binder) | 0.38 log2 | 0.55 log2 | 0.21 log2 | 0.34 log2 | 0.27 log2 | 0.41 log2 | – | – | –
11 | i53 + M1T two-hybrid fusion (designed binder) | 0.68 log2 | 0.79 log2 | 0.56 log2 | 0.61 log2 | 0.63 log2 | 0.6 log2 | – | – | –
12 | i53 + M1W two-hybrid fusion (designed binder) | 1.83 log2 | 1.95 log2 | 1.71 log2 | 0.96 log2 | 0.99 log2 | 0.92 log2 | – | – | –
13 | i53 + M1Y two-hybrid fusion (designed binder) | 2.36 log2 | 2.56 log2 | 2.16 log2 | 1 log2 | 1.18 log2 | 0.81 log2 | – | – | –
14 | i53 + N25A two-hybrid fusion (designed binder) | 0.3 log2 | 0.12 log2 | 0.49 log2 | 0.4 log2 | 0.39 log2 | 0.4 log2 | – | – | –
15 | i53 + N25C two-hybrid fusion (designed binder) | 0.13 log2 | 0.45 log2 | -0.19 log2 | 0.26 log2 | 0.31 log2 | 0.21 log2 | – | – | –
16 | i53 + N25D two-hybrid fusion (designed binder) | 0.33 log2 | 0.11 log2 | 0.54 log2 | 0.45 log2 | 0.49 log2 | 0.41 log2 | – | – | –
17 | i53 + N25E two-hybrid fusion (designed binder) | 0.56 log2 | 0.28 log2 | 0.84 log2 | 0.62 log2 | 0.61 log2 | 0.64 log2 | – | – | –
18 | i53 + N25F two-hybrid fusion (designed binder) | 0.38 log2 | 0.42 log2 | 0.34 log2 | -0.04 log2 | 0.12 log2 | -0.2 log2 | – | – | –
19 | i53 + N25G two-hybrid fusion (designed binder) | 0.71 log2 | 1.06 log2 | 0.35 log2 | 0.38 log2 | 0.57 log2 | 0.19 log2 | – | – | –
20 | i53 + N25I two-hybrid fusion (designed binder) | 0.83 log2 | 0.85 log2 | 0.81 log2 | 0.4 log2 | 0.41 log2 | 0.39 log2 | – | – | –
21 | i53 + N25K two-hybrid fusion (designed binder) | 0.32 log2 | 0.11 log2 | 0.54 log2 | 0.21 log2 | 0.17 log2 | 0.24 log2 | – | – | –
22 | i53 + N25L two-hybrid fusion (designed binder) | 0.43 log2 | 0.47 log2 | 0.39 log2 | 0.23 log2 | 0.26 log2 | 0.19 log2 | – | – | –
23 | i53 + N25M two-hybrid fusion (designed binder) | 0.5 log2 | 0.5 log2 | 0.5 log2 | 0.45 log2 | 0.46 log2 | 0.43 log2 | – | – | –
24 | i53 + N25Q two-hybrid fusion (designed binder) | 0.72 log2 | 0.24 log2 | 1.21 log2 | 0.18 log2 | 0.15 log2 | 0.22 log2 | – | – | –
25 | i53 + N25R two-hybrid fusion (designed binder) | 0.31 log2 | 0.25 log2 | 0.36 log2 | 0.29 log2 | 0.25 log2 | 0.34 log2 | – | – | –
26 | i53 + N25S two-hybrid fusion (designed binder) | 0.26 log2 | 0.18 log2 | 0.34 log2 | 0.33 log2 | 0.27 log2 | 0.38 log2 | – | – | –
